Test results from PMC3894171, “Defining NELF-E RNA Binding in HIV-1 and Promoter-Proximal Pause Regions”.

T1: dNELF-E(mut) (Drosophila, UniProt P92204 1-280, N173E;K174D;V175M;E177P;D178T;F179L)
T1 sequence: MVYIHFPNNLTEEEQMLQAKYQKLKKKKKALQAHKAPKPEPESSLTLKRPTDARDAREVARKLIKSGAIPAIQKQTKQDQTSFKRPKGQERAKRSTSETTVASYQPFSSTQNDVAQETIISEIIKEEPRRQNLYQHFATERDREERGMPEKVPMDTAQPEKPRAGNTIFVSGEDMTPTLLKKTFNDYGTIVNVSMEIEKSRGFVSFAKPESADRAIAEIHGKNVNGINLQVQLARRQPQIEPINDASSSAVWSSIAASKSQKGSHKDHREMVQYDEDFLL

B1: HIV-1 TAR (structured_RNA)
RNA: GGUCUCUCUGGUUAGACCAGAUCUGAGCCUGGGAGCUCUCUGGCUAACUAGGGAACC
B2: HIV-1 TAR+A (structured_RNA)
RNA: GGUCUCUCUGGUUAGACCAGAUCUGAGCCUGAGGAGCUCUCUGGCUAACUAGGGAACC

How the values were obtained:
hNELF-E(mut) [1] = target: T2, hNELF-E(mut) (human, UniProt P18615 1-380, E269N;D270K;M271V;P273E;T274D;L275F); experiment: fluorescence polarization; 10 mM HEPES-NaOH pH 7.5, 100 mM NaCl, 25 mM KCl, 1 mM MgCl2, 0.02% Tween-20, 0.01% IGEPAL CA-630, 10 µg/ml yeast tRNA; 2 nM RNA, 0-2000 nM protein, 1-2 h, binding temperature not stated; gel 5% acrylamide 0.5X TBE at 4 °C; conditions: protein: recombinant; tags: N-terminal His6 (pHIS-parallel1); label: 3' fluorescein (5-thiosemicarbazide); hairpin with UCU bulge
T2 sequence (P18615 whole entry E269N/D270K/M271V/P273E/T274D/L275F): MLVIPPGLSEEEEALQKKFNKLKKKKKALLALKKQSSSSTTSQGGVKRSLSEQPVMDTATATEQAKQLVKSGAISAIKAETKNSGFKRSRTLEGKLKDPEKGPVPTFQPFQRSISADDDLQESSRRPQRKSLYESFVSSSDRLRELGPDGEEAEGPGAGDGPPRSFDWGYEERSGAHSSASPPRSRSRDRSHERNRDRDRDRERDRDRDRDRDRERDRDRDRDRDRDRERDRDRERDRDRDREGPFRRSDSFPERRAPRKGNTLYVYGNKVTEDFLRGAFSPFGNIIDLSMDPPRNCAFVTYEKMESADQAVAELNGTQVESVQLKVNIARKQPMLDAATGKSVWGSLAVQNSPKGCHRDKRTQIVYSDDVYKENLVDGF

dNELF-E(mut) [2] = target: T1, dNELF-E(mut); experiment: as above; conditions: protein: recombinant, tags: N-terminal His6 (pHIS-parallel1), label: 3' fluorescein (5-thiosemicarbazide)
hNELF-E(mut) [3] = target: T2, hNELF-E(mut); experiment: F-EMSA; 10 mM HEPES-NaOH pH 7.5, 100 mM NaCl, 25 mM KCl, 1 mM MgCl2, 0.02% Tween-20, 0.01% IGEPAL CA-630, 10 µg/ml yeast tRNA; 2 nM RNA, 0-2000 nM protein, 1-2 h, binding temperature not stated; gel 5% acrylamide 0.5X TBE at 4 °C; conditions: protein: recombinant; tags: N-terminal His6 (pHIS-parallel1); label: 3' fluorescein (5-thiosemicarbazide); hairpin with UCU bulge
dNELF-E(mut) [4] = target: T1, dNELF-E(mut); experiment: as above; conditions: protein: recombinant, tags: N-terminal His6 (pHIS-parallel1), label: 3' fluorescein (5-thiosemicarbazide)

| Binder | Kd (hNELF-E(mut) [1]) | Kd (dNELF-E(mut) [2]; hairpin with UCU bulge) | Kd (hNELF-E(mut) [3]) | Kd (dNELF-E(mut) [4]; hairpin with UCU bulge) | Kd (dNELF-E(mut) [2]; putative K-turn stem-loop) | Kd (dNELF-E(mut) [4]; putative K-turn stem-loop) |
| --- | --- | --- | --- | --- | --- | --- |
| B1 | 153 ± 7 nM | 130 ± 10 nM | 258 ± 17 nM | 270 ± 10 nM |  |  |
| GGCCCCACUGAGGAUGCCCACGGGCGAUUGGGGCCA (structured_RNA) [Napt1min] |  |  |  |  | 95 ± 6 nM | 350 ± 50 nM |
| B2 | 170 ± 5 nM | 120 ± 10 nM | 233 ± 40 nM | 280 ± 30 nM |  |  |
